What was measured:
Conditions in all cases: protein: recombinant, tags: N-terminal His6 (pHIS-parallel1), label: 3' fluorescein (5-thiosemicarbazide)
[1] = molecular target: T1, hNELF-E (human, UniProt P18615 1-380); test: fluorescence polarization; 10 mM HEPES-NaOH pH 7.5, 100 mM NaCl, 25 mM KCl, 1 mM MgCl2, 0.02% Tween-20, 0.01% IGEPAL CA-630, 10 µg/ml yeast tRNA; 2 nM RNA, 0-2000 nM protein, 1-2 h, binding temperature not stated; gel 5% acrylamide 0.5X TBE at 4 °C
[2] = molecular target: T2, dNELF-E (Drosophila, UniProt P92204 1-280); test: as above
T2 sequence: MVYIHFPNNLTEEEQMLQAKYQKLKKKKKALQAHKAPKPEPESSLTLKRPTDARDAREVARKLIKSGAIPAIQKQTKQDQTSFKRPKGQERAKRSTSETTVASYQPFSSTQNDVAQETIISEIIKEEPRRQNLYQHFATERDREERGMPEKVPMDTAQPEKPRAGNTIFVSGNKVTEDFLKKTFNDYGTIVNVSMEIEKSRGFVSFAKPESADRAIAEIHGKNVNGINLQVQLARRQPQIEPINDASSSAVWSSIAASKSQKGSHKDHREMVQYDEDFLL

[3] = molecular target: T1, hNELF-E; test: F-EMSA; 10 mM HEPES-NaOH pH 7.5, 100 mM NaCl, 25 mM KCl, 1 mM MgCl2, 0.02% Tween-20, 0.01% IGEPAL CA-630, 10 µg/ml yeast tRNA; 2 nM RNA, 0-2000 nM protein, 1-2 h, binding temperature not stated; gel 5% acrylamide 0.5X TBE at 4 °C
[4] = molecular target: T2, dNELF-E; test: as above
[5] = no predicted secondary structure

T1 sequence (P18615 whole entry): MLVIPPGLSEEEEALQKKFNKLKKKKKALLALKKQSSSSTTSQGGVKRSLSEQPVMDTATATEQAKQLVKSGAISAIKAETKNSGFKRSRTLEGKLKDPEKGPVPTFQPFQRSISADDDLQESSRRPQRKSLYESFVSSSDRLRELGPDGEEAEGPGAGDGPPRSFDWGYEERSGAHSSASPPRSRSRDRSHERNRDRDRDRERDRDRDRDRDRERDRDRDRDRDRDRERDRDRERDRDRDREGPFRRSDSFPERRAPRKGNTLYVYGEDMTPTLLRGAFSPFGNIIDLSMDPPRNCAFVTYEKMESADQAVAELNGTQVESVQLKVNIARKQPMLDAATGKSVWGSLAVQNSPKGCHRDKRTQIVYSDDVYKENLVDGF

With GGCCCCACUGAGGAUGCCCACGGGCGAUUGGGGCCA (structured_RNA) [Napt1min] the Kd ([1]; putative K-turn stem-loop) was 140 ± 10 nM, the Kd ([2]; putative K-turn stem-loop) was 21 ± 7 nM and the Kd ([3]; putative K-turn stem-loop) was 420 ± 90 nM. For the same binder, the Kd ([4]; putative K-turn stem-loop) was 44 ± 22 nM.

GGCCCCAUCAAAGAUGCCCACGGGCGAUUGGGGCCA (structured_RNA) [Napt1NBEmut] showed a Kd ([4]; predicted structure kept as in Napt1min) of 880 ± 170 nM.

With GGCCCCACUGAGGAUGCCCACGGGCGUCCUCAGUGGGGCCA (structured_RNA) [Napt1+hairpin] the Kd ([2]; hairpin, NBE base-paired) was 470 ± 170 nM and the Kd ([4]; hairpin, NBE base-paired) was 810 ± 50 nM.

B1: HIV-1 TAR+A (structured_RNA)
RNA: GGUCUCUCUGGUUAGACCAGAUCUGAGCCUGAGGAGCUCUCUGGCUAACUAGGGAACC
B1 showed a Kd ([1]; hairpin with UCU bulge) of 250 ± 20 nM, a Kd ([2]; hairpin with UCU bulge) of 82 ± 1 nM and a Kd ([3]; hairpin with UCU bulge) of 250 ± 20 nM. It also gave a Kd ([4]; hairpin with UCU bulge) of 59 ± 2 nM.

For GGGGACUGAGGAGCAACACGGGCGAUUGGGGCCA (ssRNA) [Napt1-Δstem], the Kd [2, 5] was 270 ± 130 nM and the Kd [4, 5] was 205 ± 20 nM.

B2: HIV-1 TAR (structured_RNA)
RNA: GGUCUCUCUGGUUAGACCAGAUCUGAGCCUGGGAGCUCUCUGGCUAACUAGGGAACC
Binder B2 has a Kd ([1]; hairpin with UCU bulge) of 200 ± 10 nM, a Kd ([2]; hairpin with UCU bulge) of 130 ± 10 nM and a Kd ([3]; hairpin with UCU bulge) of 300 ± 20 nM. It also gave a Kd ([4]; hairpin with UCU bulge) of 350 ± 35 nM.

B3: Napt25min (structured_RNA)
RNA: GGUCUCCAACUGAGGAUACCGCUCGAGGAAGCGAGUGGCGAUUUGGAGACCU
B3 showed a Kd ([2]; putative K-turn stem-loop) of 30 ± 2 nM and a Kd ([4]; putative K-turn stem-loop) of 53 ± 9 nM.
